Assay results published in patent US20240369575A1 (Genentech, published 2024).
Read-outs that look alike come from different tables or passages of the source.

Columns and labels:
[1] = target: T1, XIAP (UniProt P98170 1-497); assay: IP from THP1 cells with or without MDP (1 ug/ml, 30 min), 6 M urea lysis; western blot XIAP
Description: (§1) THP1 cells were treated with PBS or MDP (1 μg/ml, 30 min). Cells were lysed in 6M urea buffer and immunoprecipitated using indicated RIP2-ubiquitin, K63-linear ubiquitin chain bispecific or control antibodies.

[2] = target: T2, c-IAP1 (UniProt Q13490 1-618); assay: IP from THP1 cells with or without MDP (1 ug/ml, 30 min), 6 M urea lysis; western blot c-IAP1
Description: as §1

[3] = target: T3, RIP1; assay: IP with K63-Lin from THP1 cells treated with PBS, TNF, MDP or LPS, 6 M urea lysis; western blot RIP1
T3 construct: also called non-ubiquitinated RIP1 (endogenous, human cell lines); RIPK1
T3 single chain: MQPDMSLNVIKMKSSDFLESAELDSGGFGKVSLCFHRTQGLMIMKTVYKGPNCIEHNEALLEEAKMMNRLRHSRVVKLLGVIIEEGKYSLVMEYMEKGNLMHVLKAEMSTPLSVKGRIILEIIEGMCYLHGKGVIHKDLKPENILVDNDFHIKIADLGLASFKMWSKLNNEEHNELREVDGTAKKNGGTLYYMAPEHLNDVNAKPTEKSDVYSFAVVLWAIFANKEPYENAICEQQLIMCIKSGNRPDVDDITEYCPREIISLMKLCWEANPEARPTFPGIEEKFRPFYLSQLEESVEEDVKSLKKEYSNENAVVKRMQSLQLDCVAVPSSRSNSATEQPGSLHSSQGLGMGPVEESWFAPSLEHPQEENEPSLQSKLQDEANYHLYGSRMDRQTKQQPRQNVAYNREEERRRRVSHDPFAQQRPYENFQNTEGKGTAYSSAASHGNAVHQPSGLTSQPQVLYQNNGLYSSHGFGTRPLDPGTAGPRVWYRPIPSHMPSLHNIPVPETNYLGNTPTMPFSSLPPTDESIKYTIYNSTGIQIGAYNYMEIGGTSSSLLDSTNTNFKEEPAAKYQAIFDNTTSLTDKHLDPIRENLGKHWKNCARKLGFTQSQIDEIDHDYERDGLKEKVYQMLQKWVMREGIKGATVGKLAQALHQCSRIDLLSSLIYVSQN

[4] = target: RIP3; assay: IP from HT29 WT or RIP1 KO cells with or without TBZ; western blot RIP3
[5] = target: RIP3; assay: as above; remark: listed apart in the source
[6] = target: T4, RIP2 (Homo sapiens (Human), UniProt O43353 1-540); assay: immunoprecipitation from cell lysates in 6 M urea buffer, western blot
T4 construct: also called RIPK2

[7] = target: T5, TRAF2 (UniProt Q12933 2-501); assay: as above
T5 sequence (looked up): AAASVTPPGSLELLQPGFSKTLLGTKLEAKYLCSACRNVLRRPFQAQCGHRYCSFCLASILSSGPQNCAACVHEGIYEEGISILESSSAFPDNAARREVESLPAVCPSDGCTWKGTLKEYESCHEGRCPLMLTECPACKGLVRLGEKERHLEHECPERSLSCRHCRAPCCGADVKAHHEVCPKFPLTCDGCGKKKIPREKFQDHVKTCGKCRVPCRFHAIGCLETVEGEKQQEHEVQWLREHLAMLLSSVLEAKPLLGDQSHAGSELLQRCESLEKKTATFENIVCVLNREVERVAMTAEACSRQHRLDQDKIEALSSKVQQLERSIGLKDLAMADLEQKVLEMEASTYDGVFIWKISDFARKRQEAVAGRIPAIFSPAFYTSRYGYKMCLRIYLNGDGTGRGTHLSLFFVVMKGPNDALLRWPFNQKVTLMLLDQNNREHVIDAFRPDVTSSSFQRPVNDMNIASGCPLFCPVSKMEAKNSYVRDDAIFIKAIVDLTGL

[8] = target: T6, RIP2 modified by mixed and/or branched K63-linked and linear ubiquitin chains (UniProt P0CG48 1-76); assay: IP from THP1 cells untreated or treated with MDP (1 ug/ml, 30 min), 6 M urea lysis; western blot RIP2
T6 construct: mature; also called modified RIP2; K63- and linear chain-ubiquitinated RIP2

[9] = target: T2, c-IAP1; assay: IP from THP1 cells with or without MDP (1 ug/ml, 30 min), 6 M urea lysis; western blot c-IAP1; remark: listed apart in the source
[10] = target: T1, XIAP; assay: IP from THP1 cells with or without MDP (1 ug/ml, 30 min), 6 M urea lysis; western blot XIAP (label cut to XIA on the sheet)
[11] = target: T1, XIAP; assay: immunoprecipitation from MDP-treated THP1 lysates in 6 M urea buffer, western blot
Description: as §1

[12] = target: T2, c-IAP1; assay: as above
Description: as §1

Measured: binding result

T1 sequence (P98170 whole entry): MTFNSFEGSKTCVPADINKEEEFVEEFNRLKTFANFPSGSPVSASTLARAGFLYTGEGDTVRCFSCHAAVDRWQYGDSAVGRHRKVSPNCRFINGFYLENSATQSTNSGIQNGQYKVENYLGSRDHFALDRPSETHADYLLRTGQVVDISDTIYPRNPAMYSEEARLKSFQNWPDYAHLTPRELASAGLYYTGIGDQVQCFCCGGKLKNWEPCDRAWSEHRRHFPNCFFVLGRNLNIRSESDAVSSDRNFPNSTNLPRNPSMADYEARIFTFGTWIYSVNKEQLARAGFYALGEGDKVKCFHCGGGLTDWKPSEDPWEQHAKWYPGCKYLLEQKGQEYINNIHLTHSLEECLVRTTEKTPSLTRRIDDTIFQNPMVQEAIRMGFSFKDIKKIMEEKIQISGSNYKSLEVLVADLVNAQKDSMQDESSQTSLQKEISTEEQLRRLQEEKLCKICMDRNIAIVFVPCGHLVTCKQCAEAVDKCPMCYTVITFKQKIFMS
Chain of RIP3 (chain, as listed by the source limits assumed): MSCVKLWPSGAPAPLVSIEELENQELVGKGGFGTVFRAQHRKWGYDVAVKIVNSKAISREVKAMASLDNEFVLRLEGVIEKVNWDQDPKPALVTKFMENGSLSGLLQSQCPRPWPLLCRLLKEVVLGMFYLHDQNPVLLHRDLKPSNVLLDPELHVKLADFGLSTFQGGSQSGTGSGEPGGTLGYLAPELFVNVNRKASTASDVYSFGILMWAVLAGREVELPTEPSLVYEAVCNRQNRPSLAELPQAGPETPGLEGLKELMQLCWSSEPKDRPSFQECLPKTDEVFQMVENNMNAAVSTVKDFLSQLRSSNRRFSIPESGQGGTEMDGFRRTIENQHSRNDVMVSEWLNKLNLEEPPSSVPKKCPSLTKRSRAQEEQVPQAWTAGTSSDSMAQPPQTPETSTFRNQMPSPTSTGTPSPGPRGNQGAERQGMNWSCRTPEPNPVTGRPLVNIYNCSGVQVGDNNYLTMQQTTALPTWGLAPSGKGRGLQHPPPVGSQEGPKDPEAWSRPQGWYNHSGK
T2 sequence (Q13490 whole entry): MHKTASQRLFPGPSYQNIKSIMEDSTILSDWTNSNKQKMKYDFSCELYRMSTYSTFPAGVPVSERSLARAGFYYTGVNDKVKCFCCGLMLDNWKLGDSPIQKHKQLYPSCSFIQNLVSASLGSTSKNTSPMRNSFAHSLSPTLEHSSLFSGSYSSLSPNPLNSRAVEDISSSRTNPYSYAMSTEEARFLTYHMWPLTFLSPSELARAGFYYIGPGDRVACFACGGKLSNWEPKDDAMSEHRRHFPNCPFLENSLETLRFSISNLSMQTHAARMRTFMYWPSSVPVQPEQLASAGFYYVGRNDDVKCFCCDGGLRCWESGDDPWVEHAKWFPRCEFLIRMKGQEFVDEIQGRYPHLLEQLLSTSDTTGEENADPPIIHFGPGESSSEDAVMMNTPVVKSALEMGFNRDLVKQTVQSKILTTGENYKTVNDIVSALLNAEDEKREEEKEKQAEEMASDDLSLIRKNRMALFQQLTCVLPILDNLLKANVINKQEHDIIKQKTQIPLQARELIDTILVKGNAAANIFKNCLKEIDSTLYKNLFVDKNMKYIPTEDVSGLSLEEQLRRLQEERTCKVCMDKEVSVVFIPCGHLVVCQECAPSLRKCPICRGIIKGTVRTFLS
T4 sequence (O43353 whole entry): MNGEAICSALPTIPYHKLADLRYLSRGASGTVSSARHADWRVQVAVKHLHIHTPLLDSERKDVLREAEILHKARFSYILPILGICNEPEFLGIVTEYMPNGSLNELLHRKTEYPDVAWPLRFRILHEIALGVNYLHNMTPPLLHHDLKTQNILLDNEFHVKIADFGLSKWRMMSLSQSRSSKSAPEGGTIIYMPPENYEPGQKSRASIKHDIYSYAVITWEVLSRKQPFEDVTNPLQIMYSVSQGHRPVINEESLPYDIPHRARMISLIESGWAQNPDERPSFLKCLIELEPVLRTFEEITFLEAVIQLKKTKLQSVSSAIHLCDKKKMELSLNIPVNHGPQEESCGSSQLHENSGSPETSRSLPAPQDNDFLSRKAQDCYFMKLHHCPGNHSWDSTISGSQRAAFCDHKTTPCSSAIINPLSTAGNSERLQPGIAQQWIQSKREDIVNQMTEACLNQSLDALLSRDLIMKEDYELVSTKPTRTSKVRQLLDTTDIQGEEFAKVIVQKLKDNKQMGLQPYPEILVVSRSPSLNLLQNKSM
T6 sequence (chain, as listed by the source limits assumed, chain 1 of 2, other chains not shown): as the sequence (O43353 whole entry) above

B1: anti-M1/anti-K63 bispecific antibody (bispecific antibody, V domains shown)
VH 1: EVQLVESGGGLVQPGGSLRLSCAASGFNVKTGLIHWVRQAPGKGLEWVAYITPYYGSTSYADSVKGRFTISADTSKNTAYLQMNSLRAEDTAVYYCAREYYRWYTAIDYWGQGTLVTVSS
VL 1: DIQMTQSPSSLSASVGDRVTITCRASQSVSSAVAWYQQKPGEAPKLLIYSARSLYSGVPSRFSGSRSGTDFTLTISSLQPEDFATYYCQQYSSYSSLFTFGQGTKVEIK
VH 2: EVQLVESGGGLVQPGGSLRLSCAASGFTFSNTYISWVRQAPGKGLEWVASITPSSGQTDYADSVKGRFTISADTSKNTAYLQMNSLRAEDTAVYYCARTWLLRWVMDLWGQGTLVTVSS
VL 2: DIQMTQSPSSLSASVGDRVTITCRASQDVSTAVAWYQQKPGKAPKLLIYSAKFLYSGVPSRFSGSGSGTDFTLTISSLQPEDFATYYCQQSYTTPPTFGQGTKVEIK
notes: also called K63-Lin; K63-linear ubiquitin chain bispecific antibody
no binding: [1] | [2] | [3] | [4]

B2: anti-RIP1/anti-K63 bispecific antibody (bispecific antibody, human IgG1, kappa)
heavy 1: not shown
light 1: DIQMTQSPSSLSASVGDRVTITCRASQSVSSAVAWYQQKPGEAPKLLIYSARSLYSGVPSRFSGSRSGTDFTLTISSLQPEDFATYYCQQYSSYSSLFTFGQGTKVEIKRTVAAPSVFIFPPSDEQLKSGTASVVCLLNNFYPREAKVQWKVDNALQSGNSQESVTEQDSKDSTYSLSSTLTLSKADYEKHKVYACEVTHQGLSSPVTKSFNRGEC
heavy 2: not shown
light 2: NIMMTQSPSSLAVSAGQKVTMNCKSSQNVIYTSNQRNYLAWYQQKPGQSPKLLIYWASTRVSGVPDRFTGSGSGTDFTLTISSVEVEDLAVYYCHQYLSSWTFGGGTKVEIKRTVAAPSVFIFPPSDEQLKSGTASVVCLLNNFYPREAKVQWKVDNALQSGNSQESVTEQDSKDSTYSLSSTLTLSKADYEKHKVYACEVTHQGLSSPVTKSFNRGEC
notes: also called RIP1-K63; RIP1-K63 ubiquitin chain bispecific antibody
no binding: [5] | [6] | [7] | [8]

B3: anti-RIP1/anti-M1 bispecific antibody (bispecific antibody, human IgG1, kappa)
heavy 1: not shown
light 1: DIQMTQSPSSLSASVGDRVTITCRASQDVSTAVAWYQQKPGKAPKLLIYSAKFLYSGVPSRFSGSGSGTDFTLTISSLQPEDFATYYCQQSYTTPPTFGQGTKVEIKRTVAAPSVFIFPPSDEQLKSGTASVVCLLNNFYPREAKVQWKVDNALQSGNSQESVTEQDSKDSTYSLSSTLTLSKADYEKHKVYACEVTHQGLSSPVTKSFNRGEC
heavy 2: not shown
light 2: B2 light 2
notes: also called RIP1-Lin; RIP1-Lin ubiquitin chain bispecific antibody
no binding: [4] | [6] | [7]

B4: anti-RIP2/anti-K63 bispecific antibody (bispecific antibody, human IgG1, kappa)
heavy 1: not shown
light 1: B2 light 1
heavy 2: not shown
light 2: not shown
notes: also called RIP2-K63
no binding: [9] | [10]

B5: anti-RIP2/anti-M1 bispecific antibody (bispecific antibody, human IgG1, kappa)
heavy 1: not shown
light 1: B3 light 1
heavy 2: not shown
light 2: not shown
notes: also called RIP2-Lin
no binding: [11] | [12]
